Among the data in patent US11279770 are MFI and MCF-7 IC50 (pM), HRG dependent proliferation values, retold here.

The target in assay [1] is human ErbB-2 (HER2) (human) (UniProt P04626). Description: FACS on stable K562-HER2 cells; negative control.
For assay [2] the target is unchanged. In words: cell-based or functional assay.

In assay [1], Anti-RSV mAb (antibody) registered an MFI of 276 MFI. Substance trastuzumab + pertuzumab (1:1) had an MCF-7 IC50 (pM), HRG dependent proliferation in assay [2] of 352 pM.
